The Kd is a measure of binding affinity in units of concentration. High values mean lower affinity, low ones higher affinity.

In the test the target is Full-length human RAB5 (RAB5A), purified, fluorescently labelled (human) (UniProt P20339). In words: MST.
UniProt P20339, sequence (P20339 whole entry): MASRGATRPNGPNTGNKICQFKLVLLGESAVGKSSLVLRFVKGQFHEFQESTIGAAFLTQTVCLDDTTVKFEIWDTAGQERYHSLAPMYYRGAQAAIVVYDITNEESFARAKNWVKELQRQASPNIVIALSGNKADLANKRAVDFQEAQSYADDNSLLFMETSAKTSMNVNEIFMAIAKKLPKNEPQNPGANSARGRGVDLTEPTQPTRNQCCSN

“6x His-tagged Etf-2^ΔHY (Etf-2 lacking the hydrophobic domain, amino acids 132-151) (natural protein)” showed a Kd of 21.3 nM.

The record behind these values is PMC6156607.
